Test results published in patent US20240132624A1 (Ablynx, published 2024).
Residue numbers refer to the chain shown, from its start.

B1: T0263018B11 G26Y (VHH, name in Kabat numbering)
VHH: EVQLVESGGGVVQPGGSLRLSCAASYFTFSSYAMYWVRQAPGKGLEWVSAISSGGGSTDYADSVKGRFTISRDNSKNTLYLQMNSLRPEDTALYYCAADTLYTSLTWYSYWGQGTLVTVSS
notes: FLAG3-His6 tagged
B2: T0263018B11 G54P (VHH, name in Kabat numbering)
VHH: B1 VHH with Y26G, G55P
notes: FLAG3-His6 tagged
B3: T0263018B11 G55D (VHH, name in Kabat numbering)
VHH: B1 VHH with Y26G, G56D
notes: FLAG3-His6 tagged
B4: T0263018B11 S31N (VHH, name in Kabat numbering)
VHH: B1 VHH with Y26G, S31N
notes: FLAG3-His6 tagged
B5: T0263018B11 G26H (VHH, name in Kabat numbering)
VHH: B1 VHH with Y26H
notes: FLAG3-His6 tagged
B6: T0263018B11 S31P (VHH, name in Kabat numbering)
VHH: B1 VHH with Y26G, S31P
notes: FLAG3-His6 tagged
B7: T0263018B11 S52P (VHH, name in Kabat numbering)
VHH: B1 VHH with Y26G, S52P
notes: FLAG3-His6 tagged
B8: T0263018B11 S30Q (VHH, name in Kabat numbering)
VHH: B1 VHH with Y26G, S30Q
notes: FLAG3-His6 tagged
B9: T0263018B11 S52D (VHH, name in Kabat numbering)
VHH: B1 VHH with Y26G, S52D
notes: FLAG3-His6 tagged
B10: T0263018B11 S30G (VHH, name in Kabat numbering)
VHH: B1 VHH with Y26G, S30G
notes: FLAG3-His6 tagged
B11: T0263018B11 G54E (VHH, name in Kabat numbering)
VHH: B1 VHH with Y26G, G55E
notes: FLAG3-His6 tagged
B12: T0263018B11 S30T (VHH, name in Kabat numbering)
VHH: B1 VHH with Y26G, S30T
notes: FLAG3-His6 tagged
B13: T0263018B11 S52G (VHH, name in Kabat numbering)
VHH: B1 VHH with Y26G, S52G
notes: FLAG3-His6 tagged
B14: T0263018B11 S52H (VHH, name in Kabat numbering)
VHH: B1 VHH with Y26G, S52H
notes: FLAG3-His6 tagged
B15: T0263018B11 S30D (VHH, name in Kabat numbering)
VHH: B1 VHH with Y26G, S30D
notes: FLAG3-His6 tagged
B16: T0263018B11 G54L (VHH, name in Kabat numbering)
VHH: B1 VHH with Y26G, G55L
notes: FLAG3-His6 tagged

What follows are binders tested against T1, human FcRn/b2M (human, UniProt P61769 21-119, biotinylated) (assay: SPR pH 6.0;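 note: surface plasmon resonance kinetics at 25 °C, diluted periplasmic extracts injected over immobilized ligand surfaces, 120 s association then 600–3600 s dissociation, running buffer containing 150 mM NaCl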).
T1 construct: bought recombinant biotinylated protein (ACRO FCM-H82W4 or Immunitrack ITF01); also called hFcRn; hFcRn/hb2M
T1 sequence (chain, as listed by the source limits assumed, chain 1 of 2): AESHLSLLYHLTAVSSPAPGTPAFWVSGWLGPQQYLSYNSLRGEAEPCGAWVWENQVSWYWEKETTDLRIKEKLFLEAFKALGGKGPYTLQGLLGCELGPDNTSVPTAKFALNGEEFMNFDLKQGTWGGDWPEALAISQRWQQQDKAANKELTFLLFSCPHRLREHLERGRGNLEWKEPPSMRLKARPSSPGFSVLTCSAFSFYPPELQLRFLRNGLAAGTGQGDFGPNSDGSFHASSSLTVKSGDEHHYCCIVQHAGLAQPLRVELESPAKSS
T1 sequence (P61769 21-119 limits assumed, chain 2 of 2): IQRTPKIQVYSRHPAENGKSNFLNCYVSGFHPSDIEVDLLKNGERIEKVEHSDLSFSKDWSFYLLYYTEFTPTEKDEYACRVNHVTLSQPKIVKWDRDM
Method: (§1) All kinetic measurements have been performed on ProteOn XPR36 (BioRad Laboratories, Inc.), MASS-2 (Sierra sensors, Gmbh) or SPR-32 (Bruker Corporation). […] The phytip purified periplasmic extracts were diluted 1:10 in running buffer (CPA+150 mM NaCl+0.005% Tw20 at pH 5.5, pH 6.0 or pH 7.4) and injected over the ligand surfaces (association: 120 s at 45 μL/min; dissociation: 600s-3600 s at 45 μL/min). Experiments were carried out at 25° C.
B1 gave a koff of 0.00065 s⁻¹.
Work on B2 yielded a koff of 0.0016 s⁻¹.
Work on B3 yielded a koff of 0.0017 s⁻¹.
B4 was tested, and the koff was 0.0034 s⁻¹.
Binder B5 has a koff of 0.00055 s⁻¹.
Work on B6 yielded a koff of 0.00088 s⁻¹.
Work on B7 yielded a koff of 0.0011 s⁻¹.
Work on B8 yielded a koff of 0.00085 s⁻¹.
Binder B9 has a koff of 0.0044 s⁻¹.
B10 gave a koff of 0.00066 s⁻¹.
B11 was tested, and the koff was 0.0016 s⁻¹.
Work on B12 yielded a koff of 0.0016 s⁻¹.
B13 was tested, and the koff was 0.00039 s⁻¹.
For B14, the koff was 0.0032 s⁻¹.
Binder B15 has a koff of 0.0032 s⁻¹.
For B16, the koff was 0.0016 s⁻¹.

What follows are binders tested against T2, cyno FcRn/b2M (cyno, UniProt Q8SPV9 24-297; Q8SPW0 21-119, biotinylated) (assay: SPR pH 6.0;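 note: surface plasmon resonance kinetics at 25 °C, diluted periplasmic extracts injected over immobilized ligand surfaces, 120 s association then 600–3600 s dissociation, running buffer containing 150 mM NaCl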).
T2 construct: bought recombinant biotinylated protein (Immunitrack ITF05 or ACRO FCM-C82W5); also called cFcRn; cFcRn/cb2M
T2 sequence (Q8SPV9 24-297 limits assumed, chain 1 of 2): as the sequence (chain, as listed by the source limits assumed, chain 1 of 2) above, with N39D, E44Q, G99S, S189G, S190N, L217M, S269T counted along it
T2 sequence (Q8SPW0 21-119 limits assumed, chain 2 of 2): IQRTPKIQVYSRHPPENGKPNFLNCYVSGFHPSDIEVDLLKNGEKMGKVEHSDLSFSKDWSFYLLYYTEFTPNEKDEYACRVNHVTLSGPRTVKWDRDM
Method: as §1
In the case of B1, the koff is reported as 0.00055 s⁻¹.
B2 gave a koff of 0.0017 s⁻¹.
For B3, the koff was 0.0013 s⁻¹.
Work on B4 yielded a koff of 0.0018 s⁻¹.
B5 showed a koff of 0.00016 s⁻¹.
B6 gave a koff of 0.00073 s⁻¹.
For B7, the koff was 0.0013 s⁻¹.
For B8, the koff was 0.00055 s⁻¹.
B9 gave a koff of 0.0031 s⁻¹.
For B10, the koff was 0.00054 s⁻¹.
Work on B11 yielded a koff of 0.0016 s⁻¹.
In the case of B12, the koff is reported as 0.0014 s⁻¹.
B13 was tested, and the koff was 0.0004 s⁻¹.
In the case of B14, the koff is reported as 0.0022 s⁻¹.
With B15 the koff was 0.0026 s⁻¹.
In the case of B16, the koff is reported as 0.0017 s⁻¹.

Each binder was assayed against T1, human FcRn/b2M (assay: SPR pH 7.4;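 note: surface plasmon resonance kinetics, periplasmic extracts diluted 1:10 flowed over immobilized target at 25 °C, 120 s association then 600–3600 s dissociation, buffer with 150 mM NaCl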).
Method: as §1
With B1 the koff was 0.027 s⁻¹.
B2 showed a koff of 0.033 s⁻¹.
B3 showed a koff of 0.07 s⁻¹.
Work on B4 yielded a koff of 0.17 s⁻¹.
Work on B5 yielded a koff of 0.034 s⁻¹.
Work on B6 yielded a koff of 0.043 s⁻¹.
In the case of B7, the koff is reported as 0.03 s⁻¹.
For B8, the koff was 0.035 s⁻¹.
For B9, the koff was 0.14 s⁻¹.
For B10, the koff was 0.025 s⁻¹.
With B11 the koff was 0.046 s⁻¹.
B12 showed a koff of 0.059 s⁻¹.
In the case of B13, the koff is reported as 0.012 s⁻¹.
For B14, the koff was 0.15 s⁻¹.
Work on B15 yielded a koff of 0.13 s⁻¹.
With B16 the koff was 0.041 s⁻¹.

Each binder was assayed against T2, cyno FcRn/b2M (assay: SPR pH 7.4;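 note: surface plasmon resonance kinetics, periplasmic extracts diluted 1:10 flowed over immobilized target at 25 °C, 120 s association then 600–3600 s dissociation, buffer with 150 mM NaCl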).
Method: as §1
B1 gave a koff of 0.028 s⁻¹.
B2 showed a koff of 0.041 s⁻¹.
With B3 the koff was 0.07 s⁻¹.
B4 was tested, and the koff was 0.12 s⁻¹.
Work on B5 yielded a koff of 0.026 s⁻¹.
For B6, the koff was 0.043 s⁻¹.
Work on B7 yielded a koff of 0.048 s⁻¹.
For B8, the koff was 0.026 s⁻¹.
For B9, the koff was 0.19 s⁻¹.
With B10 the koff was 0.019 s⁻¹.
Work on B11 yielded a koff of 0.062 s⁻¹.
With B12 the koff was 0.062 s⁻¹.
B13 was tested, and the koff was 0.011 s⁻¹.
B14 was tested, and the koff was 0.11 s⁻¹.
In the case of B15, the koff is reported as 0.17 s⁻¹.
Work on B16 yielded a koff of 0.06 s⁻¹.

These binders were tested against T1, human FcRn/b2M (assay: SPR off-rate; pH 7.4 vs pH 6.0;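 note: surface plasmon resonance with diluted periplasmic extracts flowed over ligand surfaces, 120 s association and 600–3600 s dissociation at 25 °C, running buffer containing 150 mM NaCl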).
Method: as §1
For B1, the “kd ratio pH 7.4/6.0” value was 42.
With B2 the “kd ratio pH 7.4/6.0” value was 21.
B3 was tested, and the “kd ratio pH 7.4/6.0” value was 41.
In the case of B4, the “kd ratio pH 7.4/6.0” value is reported as 50.
For B5, the “kd ratio pH 7.4/6.0” value was 62.
With B6 the “kd ratio pH 7.4/6.0” value was 49.
B7 was tested, and the “kd ratio pH 7.4/6.0” value was 27.
With B8 the “kd ratio pH 7.4/6.0” value was 42.
With B9 the “kd ratio pH 7.4/6.0” value was 32.
B10 was tested, and the “kd ratio pH 7.4/6.0” value was 38.
With B11 the “kd ratio pH 7.4/6.0” value was 29.
B12 was tested, and the “kd ratio pH 7.4/6.0” value was 37.
B13 was tested, and the “kd ratio pH 7.4/6.0” value was 32.
In the case of B14, the “kd ratio pH 7.4/6.0” value is reported as 46.
In the case of B15, the “kd ratio pH 7.4/6.0” value is reported as 41.
In the case of B16, the “kd ratio pH 7.4/6.0” value is reported as 26.

Each binder was assayed against T2, cyno FcRn/b2M (assay: SPR off-rate; pH 7.4 vs pH 6.0;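 note: surface plasmon resonance with diluted periplasmic extracts flowed over ligand surfaces, 120 s association and 600–3600 s dissociation at 25 °C, running buffer containing 150 mM NaCl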).
Method: as §1
B1 was tested, and the “kd ratio pH 7.4/6.0” value was 51.
In the case of B2, the “kd ratio pH 7.4/6.0” value is reported as 24.
For B3, the “kd ratio pH 7.4/6.0” value was 54.
With B4 the “kd ratio pH 7.4/6.0” value was 69.
B5 was tested, and the “kd ratio pH 7.4/6.0” value was 159.
B6 was tested, and the “kd ratio pH 7.4/6.0” value was 59.
In the case of B7, the “kd ratio pH 7.4/6.0” value is reported as 37.
In the case of B8, the “kd ratio pH 7.4/6.0” value is reported as 47.
In the case of B9, the “kd ratio pH 7.4/6.0” value is reported as 61.
With B10 the “kd ratio pH 7.4/6.0” value was 35.
In the case of B11, the “kd ratio pH 7.4/6.0” value is reported as 39.
For B12, the “kd ratio pH 7.4/6.0” value was 44.
B13 was tested, and the “kd ratio pH 7.4/6.0” value was 27.
B14 was tested, and the “kd ratio pH 7.4/6.0” value was 48.
In the case of B15, the “kd ratio pH 7.4/6.0” value is reported as 65.
B16 was tested, and the “kd ratio pH 7.4/6.0” value was 35.
